This data set addresses T1, Lmo1172 (UniProt Q92CN5).
T1 sequence: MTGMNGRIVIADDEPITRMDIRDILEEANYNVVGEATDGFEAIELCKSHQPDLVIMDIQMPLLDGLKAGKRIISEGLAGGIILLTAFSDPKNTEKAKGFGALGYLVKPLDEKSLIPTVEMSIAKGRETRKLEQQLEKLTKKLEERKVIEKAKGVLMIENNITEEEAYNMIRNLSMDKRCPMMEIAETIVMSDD
Description: EMSA. The settings on record: EMSA: 200 ng DNA in Beyotime binding buffer, 6% non-denaturing PAGE, ethidium bromide staining; salt, pH and temperature not stated. (In EMSA bound probe runs differently from free probe, usually more slowly.)

“CTAATTCACCTCCACTAATATTTTACAACGAATTTACCCATAATAACCAAAAATGTAATGAAATGTCCGATTCTTGTCATGAACGACCAAAAAAGAGCAGAATTGCCGATTTTTTGGATACATTTCAGAATATTCGAACGTGTAAAAAGGACTGTATAATAGGCTTAAAAACCCATATTAATATTTTATTTAAGTGAGTTTATTCATAAAAAAAACCAACTGCAAAAGAATGTTCACAGTTGGCTTTTCCATTTTA (double strand) [P2 promoter DNA]”: the binding result was “no binding”.

The values are drawn from paper PMC10891604.
